Data taken from article PMC6541275.

Molecular target: Wild-type Microplasmin (human) (UniProt P00747)
Sequence of UniProt P00747 (P00747 whole entry): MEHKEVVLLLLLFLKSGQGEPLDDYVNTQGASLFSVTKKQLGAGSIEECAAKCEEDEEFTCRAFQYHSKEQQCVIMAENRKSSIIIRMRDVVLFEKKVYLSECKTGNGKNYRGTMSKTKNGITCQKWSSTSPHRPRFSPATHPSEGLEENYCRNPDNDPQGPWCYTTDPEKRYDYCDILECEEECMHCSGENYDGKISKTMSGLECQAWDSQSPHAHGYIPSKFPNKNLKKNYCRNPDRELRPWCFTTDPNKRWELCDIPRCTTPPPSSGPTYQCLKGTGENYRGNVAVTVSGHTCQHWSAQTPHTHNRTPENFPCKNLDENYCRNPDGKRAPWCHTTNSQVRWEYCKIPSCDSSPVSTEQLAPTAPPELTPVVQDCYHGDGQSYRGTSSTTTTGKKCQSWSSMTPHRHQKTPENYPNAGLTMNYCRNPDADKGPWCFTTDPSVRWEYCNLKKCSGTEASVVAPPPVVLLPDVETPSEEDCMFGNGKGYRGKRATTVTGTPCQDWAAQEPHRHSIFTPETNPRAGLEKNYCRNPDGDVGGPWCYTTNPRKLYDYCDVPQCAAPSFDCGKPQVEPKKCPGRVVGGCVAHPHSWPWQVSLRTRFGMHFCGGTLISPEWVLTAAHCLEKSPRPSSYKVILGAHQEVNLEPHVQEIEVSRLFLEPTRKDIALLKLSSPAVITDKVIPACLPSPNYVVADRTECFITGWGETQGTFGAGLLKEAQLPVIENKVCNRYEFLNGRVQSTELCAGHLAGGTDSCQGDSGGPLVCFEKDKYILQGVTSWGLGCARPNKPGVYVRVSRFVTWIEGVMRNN

B1: α2-antiplasmin (natural protein)
chain: NQEQVSPLTLLKLGNQEPGGQTALKSPPGVCSRDPTPEQTHRLARAMMAFTADLFSLVAQTSTCPNLILSPLSVALALSHLALGAQNHTLQRLQQVLHAGSGPCLPHLLSRLCQDLGPGAFRLAARMYLQKGFPIKEDFLEQSEQLFGAKPVSLTGKQEDDLANINQWVKEATEGKIQEFLSGLPEDTVLLLLNAIHFQGFWRNKFDPSLTQRDSFHLDEQFTVPVEMMQARTYPLRWFLLEQPEIQVAHFPFKNNMSFVVLVPTHFEWNVSQVLANLSWDTLHPPLVWERPTKVRLPKLYLKHQMDLVATLSQLGLQELFQAPDLRGISEQSLVVSGVQHQSTLELSEVGVEAAAATSIAMSRMSLSSFSVNRPFLFFIFEDTTGLPLFVGSVRNPNPSAPRELKEQQDSPGNKDFLQSLKGFPRGDKLFGPDLKLVPPMEEDYPQFGSPK
  In vitro half-life of inactivation by α2-antiplasmin: residual amidolytic activity (Chromozym PL, 405nm) of 20nM microplasmin with 60nM antiplasmin, 100mM sodium phosphate pH 7.2, 25°C, 15sec-30 min: 5 min
